Experimental data taken from US20230227580A1, “ANTI-VWF ANTIBODIES AND USES THEREOF” (MONASH UNIVERSITY, priority 2020, published 2023).
“Also recorded” adds a separate entry of the source.

Tests used:
[1] = test system: thrombus formation / platelet deposition; assay: Thrombus formation on collagen type I in stenosis channels (SRG versus constant shear); assay type: cell-based, human; settings: for Thrombus formation: 15 minutes of blood flow
Source text: In-house designed PDMS microfluidic chips (FIG. 1A) contained channels of 52 µm height with a footprint of 300 µm x 46 mm (used in FIG. 1) or 300 µm x 17 mm. Selected channels incorporated a semi-circular stenotic section of various lengths (600 µm, 1000 µm or 2000 µm diameter), creating 80% lumen reduction. Chips were manufactured as previously reported (Westein et al. Proceedings of the National Academy of Sciences of the United States of America. 2013 Jan 22;110(4):1357-62). The produced PDMS chips were sealed with cover slips by hydrophobic interaction and coated with collagen by perfusion of collagen solution followed by static incubation at RT for at least 1 hr. Channels were rinsed with PBS and blocked with 2% BSA. Wall shear rates of the input flow for these microchannels were approximated from volumetric flow rates by using the equation, γ = 6Q/wh2. Herein, γ is the wall shear rate (s^-1), Q the volumetric flow rate (mls^-1), w the channel with (cm) and h the channel height (cm).
(§1) Citrated whole blood was incubated with DiOC6 (0.5 µg ml^-1) (Sigma-Aldrich Co, St. Louis, MO, USA) and drawn through microfluidic channels by a programmable syringe pump (Legato 130, KD Scientific, USA). Time-lapse z-stack images of platelet deposition were captured in multiple track, resonant scanning mode, using a Nikon A1R confocal microscope system. Platelet deposition was recorded over time (2 frames per minute) for up to 20 minutes and quantified in ImageJ using a Z-projection of the acquired signal.

[2] = test system: VWF-GPIb binding (plasma VWF, isolated platelets); assay: Ristocetin-induced platelet agglutination test (RIPA); assay type: cell-based, human
Method: Platelet-poor plasma (PPP; source of plasma VWF) was prepared by centrifugation of citrated whole blood at 300 × g for 10 min to obtain platelet rich plasma (PRP) and further centrifugation of the PRP fraction at 1700 × g for 7 min. Isolated platelets (3 × 10^8/ml) suspended in platelet wash buffer (4.3 mM K2HPO4, 4.3 mM Na2HPO4, 24.3 mM NaH2PO4, 113 mM NaCl, 5.5 mM D-glu cose, and 10 mM theophylline, pH 6.5) were centrifuged at 1500 × g for 7 min. The washed platelets were subsequently resuspended at the same concentration in modified Tyrode’s buffer (10 mM Hepes, 12 mM NaHCO3, 137 mM NaCl, 2.7 mM KCI and 5 mM glucose, pH 7.3) containing calcium (1 mM), magnesium (1 mM) and apyrase (0.02 U ml^-1) (ADPase activity). Isolated platelets (150, 300 µL at 3 × 10^8/ml) and platelet poor plasma (50 µl) were incubated with 2, 2.5, 4, 5, 40 and 80 µg ml^-1 scFv A1 and the corresponding concentration of control scFv, or Tyrode’s buffer was used to neutralise any other aggregation mechanisms beside the VWF A1-GPlbα interaction. Platelet agglutination in response to 0.75 mg mL^-1 ristocetin (Helena Biosciences, Gateshead, UK) and in the presence of the αIIbβ3 (GPIIb/IIIa) blocker Integrilin was performed for 10 min on an AggRam system from Helena Laboratories, USA

full length VWF = biological target: T1, full length VWF (Homo sapiens, UniProt P04275); assay: ELISA binding to immobilized full length VWF; settings: scFv A1 5 µg ml^-1; ristocetin 0.75 mg ml^-1
T1 construct: coated with purified full length VWF or isolated A1 domain
Method: (§2) ELISA wells (Thermo Fisher Scientific) were coated with purified full length VWF or isolated A1 domain at 0.1, 1 and 10 µg ml^-1 in the presence of ristocetin (0.75 mg ml^1) and blocked with 2% BSA. Next, the coated wells were incubated with 5 µg ml^-1 of scFv A1 or sheep anti-VWF antibody followed by incubation with an HRP-conjugated secondary antibody (Anti-his HRP for scFv A1, Donkey anti-sheep HRP antibody for sheep anti-VWF antibody) (1:4,000). Readings were measured at 450 nm on a BMG Optima multi-well reader.

isolated VWF A1 domain = biological target: T2, isolated VWF A1 domain (Homo sapiens, UniProt P04275); assay: ELISA binding to isolated VWF A1 domain; settings: scFv A1 5 µg ml^-1
T2 construct: coated with purified full length VWF or isolated A1 domain
Method: as §2

VWF-full length = biological target: T3, VWF-full length (Homo sapiens, UniProt P04275); assay: BLItz bio-layer interferometry, immobilized full length VWF; settings: BLItz binding assay
T3 construct: coated with purified full length VWF or isolated A1 domain
Method: Bio-layer Interferometry was performed on a BIItz System (Pall Forte Bio, USA). Protein-A biosensors were hydrated for 30 minutes in PBS-Tween (0.05%) and loaded with VWF-A1 domain (130 µg ml^-1). Remaining binding sites were blocked by exposure to a polyclonal mouse IgG for 5 min. Sequential adhesion of scFv-A1 at 0, 20, 40 and 100 µg ml^-1 was monitored for 5 min per concentration. Real time visualisation of binding interactions between scFv A1 and full length VWF/A1 domain was performed using the BLItz Pro software. Traces were manually baseline aligned and corrected for control binding (0 µg ml^-1 scFv-A1).

VWF = VWF (Homo sapiens, UniProt P04275); assay: VWF binding in the presence or absence of ristocetin (FIG. 7)
[3] = test system: platelet aggregation / thrombus formation; assay: Progressive shear gradient flow model: whole blood over collagen type I patches in straight channels; assay type: cell-based, human; settings: scFv A1 5 µg ml^-1, 1,000 s^-1
Source text: Fluid dynamics were simulated with a COMSOL Multiphysics 4.2 laminar flow module applied to three-dimensional meshes. For all simulations, no-slip boundary conditions and Newtonian fluids were assumed. To obtain meshes from the plain channel geometries, channel dimensions were taken from the original computer-aided design (CAD) files and reconstructed in COMSOL. To obtain meshes from platelet aggregate geometries, confocal fluorescence microscopy image z-stacks of labeled platelets were processed in ImageJ. Each image in a z-stack was converted into a binary image by thresholding, and an x-y heightmap was constructed by summing all binary data in a z-stack followed by multiplying the result with the height of the original z-stack as documented by the confocal microscope. […] Input flow parameters were set based on pump settings as used in the experiments, and were adjusted to account for the reduced width of the fluorescence aggregate meshes compared to the full channel geometries. […]
as §1, with “Time-lapse z-stack images of platelet deposition were captured in multiple track, resonant scanning mode, using a Nikon A1R confocal microscope system.” left out

B1: scFv A1: single chain antibody combining variable heavy chain of mAb CR1 with variable light chain of mAb CR2; VH SEQ ID NO: 11, VL SEQ ID NO: 10 (antibody, V domains shown)
VH: QVQLQQPGAELVRPGASVKLSCKASGYSFTNYWMSWVKQRPGQGLEWIGMIHPSDSDTRLNQKFKDKATLTVDKSSSTAYMQLSSPTSEDSAGLLLCKKFEGWLPVLLGPRHHSHSLLS
VL: DIELTQSPASLAVSLGQSYRASCKSVSTSGYSYMHWNQQKPGQPPRLLIYLVSNLESGVPARFSGSGSGTDFTLNIHPVEEEDAATYYCQHIRELTRSEGDQAEINR
modifications: scFv linker; Mouse
In the case of B1, the Thrombus formation ([1]; 2000 s^-1 constant shear) is reported as “no effect”, the Thrombus formation ([1]; SRGs (187-1,500 s^-1)) is reported as “inhibited thrombus formation” and the Thrombus formation ([1]; SRGs (300-2,000 s^-1)) is reported as “inhibited thrombus formation”. For the same molecule, the “Inhibition of thrombus formation” value ([1]; scFv A1 2.5 µg ml^-1) was “absent”, the “Inhibition of thrombus formation” value ([1]; scFv A1 5 µg ml^-1) was “showed inhibition” and the “Relative thrombus growth (ratio of intensity in the last frame over the first frame)” value ([1]; scFv A1 5 µg ml^-1, SRG, 1,500 s^-1 in stenosis apex, control 1.58±0.22, p<0.001) was 1.2±0.09. For the same molecule, the “Relative thrombus growth (ratio of intensity in the last frame over the first frame)” value ([1]; scFv A1 5 µg ml^-1, SRG, 2,000 s^-1 in stenosis apex, control 1.85±0.28, p<0.0001) was 1.17±0.07, the “Relative thrombus growth (ratio of intensity in the last frame over the first frame)” value ([1]; scFv A1 5 µg ml^-1, constant shear 1,500 s^-1, 10 minutes, other value of the pair 1.48±0.16) was 1.62±0.2 and the “Relative thrombus growth (ratio of intensity in the last frame over the first frame)” value ([1]; scFv A1 5 µg ml^-1, constant shear 2,000 s^-1, 10 minutes, other value of the pair 2.11±0.23) was 1.9±0.36. For the same molecule, the “Effect on platelet deposition” value ([1]; scFv A1 5 µg ml^-1, constant shear, straight channel sections) was “no effect”, the “Inhibition of thrombus formation” value ([1]; scFv A1 10 µg ml^-1) was “showed inhibition” and the Ristocetin-induced platelet agglutination ([2]; plasma VWF preincubated with scFv A1 and ristocetin prior to platelet binding) was “minor inhibitory effect”. For the same molecule, the “Ristocetin-induced agglutination of isolated platelets” value ([2]; scFv A1 up to 80 µg ml^-1, ristocetin 0.75 mg ml^-1, plasma VWF present) was “did not result in delayed or reduced agglutination”, the “Binding to immobilized full length VWF” value (full length VWF) was “did not bind” and the “Binding to isolated VWF A1 domain” value (isolated VWF A1 domain) was “did not bind”. For the same molecule, the “Binding to immobilized VWF-full length” value (VWF-full length) was “did not observe any binding”, the “Mechanism of VWF binding (dependence on conformation)” value (VWF) was “conformational-dependent binding” and the “Platelet aggregation in the rear area of the collagen patch” value ([3]; constant shear, SRGs absent) was “did not reduce; also recorded: not at the rear”. The “Platelet aggregation at the front area of the collagen patch” value ([3]; local shear gradient) was “selectively attenuated; also recorded: inhibited platelet aggregation only at the front of the patch”.
